Source: PMC6336196 (Nature, 2018)
Where two headings read alike, the source gives them in different places.

B1: Cyphellophora europaea mitochondrial calcium uniporter (natural protein, UniProt W2SDE2 1-346, looked up)
chain: MTKGKLLTTPSRLLKLVLPLSTVDHNTDRKDVAPLALLVHPQQPLSYLERLIQAELPPPDPQDSKSTTRSVTFRAMEAKDDEIKPRKKADTEGGGGSDGSVQSYSGAGREGEGKDEGEFVRWSPSTEIGDFIRDAARAKEFEVEIEGSPGVIKVAVPSFNDRTYYLRQRLRRTSRKISKLAAIKEECDKAAHRGAQRIALAGCGGLIGYWYIVYRLTFETDLGWDVMEPVTYLVGLSTLIGGYMWFLWHNREVSYRSALNITVSARQNKLYQAKGFSLQDWEGYLEEANAMRREIKAVASEYDVDWNETQDEGGDEKVTKALRDERKNNNGTKNKSKEGEEDDEDD
B2: Danio rerio (zebrafish) mitochondrial calcium uniporter (natural protein, zebrafish (Danio rerio), UniProt Q08BI9 35-376, looked up)
chain: QGTKTEALSMSLGGHQTVRRAHGLRTGGRCALFCHPSATLTAQGWKGSPSWQVQRLLCSPAAEDVSVVYQNGLPVISVRLPSRRERCQFTLKPLSDTVGVFLQQLQAEDRGIDRVTIYSADGARIASSTGIDILLMDNFKLVINDTSYLVQPPRRDLLPHEDGERLNDVKILVQQLYTTLRIEEHQLNKERELIGRLEDLNSQLQPLEKVKEELSKKAERRTTWVLWGGMAYMATQFGILARLTWWEYSWDIMEPVTYFITYGTAMAMYAYFVLTRQEYLYPDARDRQYLLFFHRGAKRTRFDIEKYNKLKDAIAEAELDLKRLRDPLQLNLPIQQIDTSKD

Key:
[1] = biological target: the molecule itself; test: cryo-EM structure
[2] = biological target: the molecule itself; test: cryo-EM structure; remark: listed apart in the source

| Protein | stoichiometry N [1] | stoichiometry N [2] |
| --- | --- | --- |
| B1 | 4 |  |
| B2 |  | 4 |
